Columns and labels:
Assay in all cases: in vitro kinase assay
CDC2/cyclin B complex = CDC2/cyclin B complex (UniProt P06493 1-297; P14635 1-433)
CDK4/cyclin D1 complex = CDK4/cyclin D1 complex (UniProt P11802 1-303; P24385 1-295)
CDK2/cyclin E complex = CDK2/cyclin E complex (UniProt P24941 1-298; P24864 16-410)

Sequence of CDC2/cyclin B complex (P06493 whole entry, chain 1 of 2): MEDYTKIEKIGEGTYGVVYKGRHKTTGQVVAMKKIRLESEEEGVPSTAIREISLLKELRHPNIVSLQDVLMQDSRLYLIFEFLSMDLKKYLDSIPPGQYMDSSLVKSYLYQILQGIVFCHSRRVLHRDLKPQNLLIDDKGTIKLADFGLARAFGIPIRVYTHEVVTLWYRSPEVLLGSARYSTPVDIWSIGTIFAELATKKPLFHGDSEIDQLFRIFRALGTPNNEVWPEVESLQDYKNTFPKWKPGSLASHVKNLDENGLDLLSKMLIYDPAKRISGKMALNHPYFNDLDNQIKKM
Sequence of CDC2/cyclin B complex (P14635 whole entry, chain 2 of 2): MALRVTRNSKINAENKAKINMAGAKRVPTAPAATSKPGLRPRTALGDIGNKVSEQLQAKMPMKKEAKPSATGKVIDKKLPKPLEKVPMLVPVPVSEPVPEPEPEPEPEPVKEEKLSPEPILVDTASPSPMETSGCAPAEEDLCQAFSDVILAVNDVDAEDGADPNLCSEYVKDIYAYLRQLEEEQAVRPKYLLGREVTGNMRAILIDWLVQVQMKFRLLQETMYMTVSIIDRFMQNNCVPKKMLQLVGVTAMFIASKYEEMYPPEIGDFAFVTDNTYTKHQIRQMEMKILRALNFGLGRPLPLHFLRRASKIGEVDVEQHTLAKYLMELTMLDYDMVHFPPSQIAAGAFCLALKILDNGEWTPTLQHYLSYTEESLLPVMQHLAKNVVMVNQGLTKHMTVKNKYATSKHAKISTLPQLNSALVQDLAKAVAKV
Sequence of CDK4/cyclin D1 complex (P11802 whole entry, chain 1 of 2): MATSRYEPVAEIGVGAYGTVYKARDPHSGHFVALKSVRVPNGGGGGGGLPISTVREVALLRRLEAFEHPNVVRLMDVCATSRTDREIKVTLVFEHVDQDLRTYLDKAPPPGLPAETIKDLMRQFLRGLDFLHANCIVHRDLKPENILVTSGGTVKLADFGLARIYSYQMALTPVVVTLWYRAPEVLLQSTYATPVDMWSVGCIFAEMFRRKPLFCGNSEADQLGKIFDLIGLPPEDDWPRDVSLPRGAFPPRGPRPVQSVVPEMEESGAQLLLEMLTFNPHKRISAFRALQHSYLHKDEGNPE
Sequence of CDK4/cyclin D1 complex (P24385 whole entry, chain 2 of 2): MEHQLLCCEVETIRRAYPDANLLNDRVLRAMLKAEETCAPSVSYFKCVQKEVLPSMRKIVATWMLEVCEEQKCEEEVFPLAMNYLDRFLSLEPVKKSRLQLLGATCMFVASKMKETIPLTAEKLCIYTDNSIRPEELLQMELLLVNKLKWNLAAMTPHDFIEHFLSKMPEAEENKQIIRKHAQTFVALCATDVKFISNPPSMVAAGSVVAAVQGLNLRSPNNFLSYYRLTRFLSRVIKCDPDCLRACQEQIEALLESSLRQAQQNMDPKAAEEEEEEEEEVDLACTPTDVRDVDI

IC50 (CDC2/cyclin B complex) [nM] | IC50 (CDK4/cyclin D1 complex) [nM] | IC50 (CDK2/cyclin E complex) [nM] | Binder
17 | 38 | 3 | W10 (other) MGYPYDVPDYAKPSACRNLFGPVDHEELTRDLEKHCRDMEEASQRKWNFDFQNHKPLEGKYEWQEVEKGSLPEFYYRPPRGGGGSGGGGSGGGGSVEDPAAGSSMEPSADWLATAAARGRVEEVRALLEAGALPNAPNSYGRRPIQVMMMGSARVAELLLLHGAEPNCADPATLTRPVHDAAREGFLDTLVVLHRAGARLDVRDAWGRLPVDLAEELGHRDVARYLRAAAGGTRGSNHARIDAAEGPSDIPD
18 | 47 | 3.5 | W9 (other) MGYPYDVPDYAKPSACRNLFGPVDHEELTRDLEKHCRDMEEASQRKWNFDFQNHKPLEGKYEWQEVEKGSLPEFYYRPPRVEDPAAGSSMEPSADWLATAAARGRVEEVRALLEAGALPNAPNSYGRRPIQVMMMGSARVAELLLLHGAEPNCADPATLTRPVHDAAREGFLDTLVVLHRAGARLDVRDAWGRLPVDLAEELGHRDVARYLRAAAGGTRGSNHARIDAAEGPSDIPD
> 1000 | 100 | > 1000 | human p16 (other) MEPAAGSSMEPSADWLATAAARGRVEEVRALLEAGALPNAPNSYGRRPIQVMMMGSARVAELLLLHGAEPNCADPATLTRPVHDAAREGFLDTLVVLHRAGARLDVRDAWGRLPVDLAEELGHRDVARYLRAAAGGTRGSNHARIDAAEGPSDIPD
